Laboratory results as given in paper PMC7772510.

Target: complement fragment iC3b (UniProt P01024)
Assay: ELISA

Which percent of the anticipated saturation level at 8 µM does the source give for GST-αM I-domain (domain or fragment) here?
Its percent of the anticipated saturation level at 8 µM is 50%.
